In publication PMC10315065 (Journal of Innate Immunity, 2023):

Target: human glyceraldehyde-3-phosphate dehydrogenase (GAPDH) (human, UniProt P04406 1-335, fluorescent dye NT-647 (Monolith NT Protein Labeling Kit RED-NHS))
Test: MST

Sequence of human glyceraldehyde-3-phosphate dehydrogenase (GAPDH) (P04406 whole entry): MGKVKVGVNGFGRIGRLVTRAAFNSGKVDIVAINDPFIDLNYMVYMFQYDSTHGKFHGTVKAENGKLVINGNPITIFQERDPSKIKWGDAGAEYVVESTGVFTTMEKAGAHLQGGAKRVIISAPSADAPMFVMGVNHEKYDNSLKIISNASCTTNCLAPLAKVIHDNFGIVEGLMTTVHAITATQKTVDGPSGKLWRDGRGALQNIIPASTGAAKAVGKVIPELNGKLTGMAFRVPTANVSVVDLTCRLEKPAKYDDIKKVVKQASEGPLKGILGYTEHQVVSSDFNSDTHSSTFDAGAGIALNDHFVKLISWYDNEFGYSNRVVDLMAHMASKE

B1: Mouse cathelicidin-related antimicrobial peptide (peptide)
peptide: GLLRKGGEKIGEKLKKIGQKIKNFFQKLVPQPEQ
Kd: 472 nM
